Measurements as given in US20050054822A1 (published 2005).

Target: T1, human MARCO (macrophage receptor with a collagenous structure) (human, UniProt Q9UEW3 1-520)
T1 construct: also called HIN-2 receptor
T1 sequence: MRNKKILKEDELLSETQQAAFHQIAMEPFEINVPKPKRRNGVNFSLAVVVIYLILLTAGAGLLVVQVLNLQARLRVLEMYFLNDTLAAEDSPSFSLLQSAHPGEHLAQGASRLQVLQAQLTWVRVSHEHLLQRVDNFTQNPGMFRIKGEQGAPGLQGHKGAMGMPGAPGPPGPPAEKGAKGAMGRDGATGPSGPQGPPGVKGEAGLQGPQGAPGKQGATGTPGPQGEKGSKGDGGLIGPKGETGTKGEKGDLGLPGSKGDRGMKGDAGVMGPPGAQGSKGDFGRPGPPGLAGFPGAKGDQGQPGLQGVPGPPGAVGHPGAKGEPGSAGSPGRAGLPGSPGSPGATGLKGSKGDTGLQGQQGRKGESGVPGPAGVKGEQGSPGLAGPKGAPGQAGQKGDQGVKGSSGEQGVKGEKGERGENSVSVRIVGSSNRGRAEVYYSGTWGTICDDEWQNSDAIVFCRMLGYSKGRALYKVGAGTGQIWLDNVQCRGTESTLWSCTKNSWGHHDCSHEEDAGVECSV
Test: staining of retrovirally transduced U937 cells with FLAG-HIN-2
Text: cDNA for both MARCO and SP-C were subcloned into the MSCV-IRES retroviral vector, which contains an IRES element followed by the gene encoding green fluorescent protein (GFP). Briefly, for MARCO, full length cDNA fragment encoding MARCO was amplified by PCR from the single MARCO expression cell clone cDNA with two primers from the human lung retroviral cDNA library (Strategene). The amplified cDNA fragment was digested with Sal I and Not I and cloned into the Xho I and Not I site of MSCV-GFP plasmid and PRK plasmids to make MSCV-MARCO and PRK-MARCO. SP-C cDNA was similarly prepared. Viruses were produced and used to infect U937 cells, and the infected cells were stained with FLAG-HIN-2. The FLAG-HIN-2 specifically stained the U937 cell line transduced with retroviruses encoding the MARCO, but no staining was detected on uninfected, MSCV-empty vector infected, or SP-C infected cells (data not shown).

binding result: binds
B1: FLAG-HIN-2 (mature human HIN-2 with a carboxy-terminal Flag tag, secreted from 293 cells) (ligand)
chain: FLINKVPLPVDKLAPLPLDNILPFMDPLKLLLKTLGISVEHLVEGLRKCVNELGPEASEAVKKLLEALSHLV
notes: also called HIN-2-FLAG; UGRP1; not shown: C-terminal Flag tag from the PRK-C-FLAG vector; The tagged mature protein is stated to be 86 amino acids, so 14 residues
